Reference: US20120090043A1, “TARGETS FOR RETROVIRUS ASSOCIATED DISEASES” (priority 2009, published 2012)

B1: MINA: human host interactor protein, Gene ID 84864, expressed from transfected ORF vector (protein)
chain: MPKKAKPTGSGKEEGPAPCKQMKLEAAGGPSALNFDSPSSLFESLISPIKTETFFKEFWEQKPLLIQRDDPALATYYGSLFKLTDLKSLCSRGMYYGRDVNVCRCVNGKKKVLNKDGKAHFLQLRKDFDQKRATIQFHQPQRFKDELWRIQEKLECYFGSLVGSNVYITPAGSQGLPPHYDDVEVFILQLEGEKHWRLYHPTVPLAREYSVEAEERIGRPVHEFMLKPGDLLYFPRGTIHQADTPAGLAHSTHVTISTYQNNSWGDFLLDTISGLVFDTAKEDVELRTGIPRQLLLQVESTTVATRRLSGFLRTLADRLEGTKELLSSDMKKDFIMHRLPPYSAGDGAELSTPGGKLPRLDSVVRLQFKDHIVLTVLPDQDQSDEAQEKMVYIYHSLKNSRETHMMGNEEETEFHGLRFPLSHLDALKQIWNSPAISVKDLKLTTDEEKESLVLSLWTECLIQVV
B2: LOC541468: human host interactor protein, Gene ID 541468, expressed from transfected ORF vector (protein)
chain: MEGTVESQTPDLRDVEGKVGRKTPEGLLRGLRGECELGTSGALLLPGASSTGHDLGDKIMALKMELAYLRAIDVKILQQLVTLNEGIEAVRWLLEERGTLTSHCSSLTSSQYSLTGGSPGRSRRGSWDSLPDTSTTDRLDSVSIGSFLDTVAPSELDEQGPPGAPRSEMDWAKVIAGGERARTEVDVAATRLGSLRAVWKPPGERLQGGPPESPEDESAKLGFEAHWFWEQCQDDVTFL
B3: DLAT: human host interactor protein, Gene ID 1737, expressed from transfected ORF vector (protein)
chain: MWRVCARRAQNVAPWAGLEARWTALQEVPGTPRVTSRSGPAPARRNSVTTGYGGVRALCGWTPSSGATPRNRLLLQLLGSPGRRYYSLPPHQKVPLPSLSPTMQAGTIARWEKKEGDKINEGDLIAEVETDKATVGFESLEECYMAKILVAEGTRDVPIGAIICITVGKPEDIEAFKNYTLDSSAAPTPQAAPAPTPAATASPPTPSAQAPGSSYPPHMQVLLPALSPTMTMGTVQRWEKKVGEKLSEGDLLAEIETDKATIGFEVQEEGYLAKILVPEGTRDVPLGTPLCIIVEKEADISAFADYRPTEVTDLKPQVPPPTPPPVAAVPPTPQPLAPTPSAPCPATPAGPKGRVFVSPLAKKLAVEKGIDLTQVKGTGPDGRITKKDIDSFVPSKVAPAPAAVVPPTGPGMAPVPTGVFTDIPISNIRRVIAQRLMQSKQTIPHYYLSIDVNMGEVLLVRKELNKILEGRSKISVNDFIIKASALACLKVPEANSSWMDTVIRQNHVVDVSVAVSTPAGLITPIVFNAHIKGVETIANDVVSLATKAREGKLQPHEFQGGTFTISNLGMFGIKNFSAIINPPQACILAIGASEDKLVPADNEKGFDVASMMSVTLSCDHRVVDGAVGAQWLAEFRKYLEKPITMLL
B4: HOXD3: human host interactor protein, Gene ID 3232, expressed from transfected ORF vector (protein)
chain: MLFEQGQQALELPECTMQKAAYYENPGLFGGYGYSKTTDTYGYSTPHQPYPPPAAASSLDTDYPGSACSIQSSAPLRAPAHKGAELNGSCMRPGTGNSQGGGGGSQPPGLNSEQQPPQPPPPPPTLPPSSPTNPGGGVPAKKPKGGPNASSSSATISKQIFPWMKESRQNSKQKNSCATAGESCEDKSPPGPASKRVRTAYTSAQLVELEKEFHFNRYLCRPRRVEMANLLNLTERQIKIWFQNRRMKYKKDQKAKGILHSPASQSPERSPPLGGAAGHVAYSGQLPPVPGLAYDAPSPPAFAKSQPNMYGLAAYTAPLSSCLPQQKRYAAPEFEPHPMASNGGGFASANLQGSPVYVGGNFVESMAPASGPVFNLGHLSHPSSASVDYSCAAQIPGNHHHGPCDPHPTYTDLSAHHSSQGRLPEAPKLTHL
B5: TTC23: human host interactor protein, Gene ID 64927, expressed from transfected ORF vector (protein)
chain: MQESQETHISNHLDEVVAAVSITHRKKFQNKLLQTALFQPPREKLHLCEEKAKSYSNSHEYKQAVHELVRCVALTRICYGDSHWKLAEAHVNLAQGYLQLKGLSLQAKQHAEKARQILANSIVPPYSENTDVFKFSIELFHTMGRALLSLQKFKEAAENLTKAERLSKELLQCGRIIKEEWIEIEARIRLSFAQVYQGQKKSKEALSHYQAALEYVEISKGETSRECVPILRELAGVEQALGLHDVSINHFLQAHLIILSRSPSQVEAADSAHIVAHAAVASGRHEHHDVAEQYFQESMAHLKDSEGMGRTKFLSIQDEFCHFLQMTGQKERATSILRESLEAKVEAFGDFSPEVAETYRLLGGADLAQGNHSGARKKLKKCLQIQTLLYGPQDKRTLATQQAMGMLSTAPKVASKPRQASKAKVAFCTSIPQDTLLGKARPGTTAD
B6: MIZF: human host interactor protein, Gene ID 25988, expressed from transfected ORF vector (protein)
chain: MPPPGKVPRKENLWLQCEWGSCSFVCSTMEKFFEHVTQHLQQHLHGSGEEEEEEEEDDPLEEEFSCLWQECGFCSLDSSADLIRHVYFHCYHTKLKQWGLQALQSQADLGPCILDFQSRNVIPDIPDHFLCLWEHCENSFDNPEWFYRHVEAHSLCCEYEAVGKDNPVVLCGWKGCTCTFKDRSKLREHLRSHTQEKVVACPTCGGMFANNTKFLDHIRRQTSLDQQHFQCSHCSKRFATERLLRDHMRNHVNHYKCPLCDMTCPLPSSLRNHMRFRHSEDRPFKCDCCDYSCKNLIDLQKHLDTHSEEPAYRCDFENCTFSARSLCSIKSHYRKVHEGDSEPRYKCHVCDKCFTRGNNLTVHLRKKHQFKWPSGHPRFRYKEHEDGYMRLQLVRYESVELTQQLLRQPQEGSGLGTSLNESSLQGIILETVPGEPGRKEEEEEGKGSEGTALSASQDNPSSVIHVVNQTNAQGQQEIVYYVLSEAPGEPPPAPEPPSGGIMEKLQGIAEEPEIQMV
B7: MLLT11: human host interactor protein, Gene ID 10962, expressed from transfected ORF vector (protein)
chain: MRDPVSSQYSSFLFWRMPIPELDLSELEGLGLSDTATYKVKDSSVGKMIGQATAADQEKNPEGDGLLEYSTFNFWRAPIASIHSFELDLL
B8: KRT15: human host interactor protein, Gene ID 3866, expressed from transfected ORF vector (protein)
chain: MTTTFLQTSSSTFGGGSTRGGSLLAGGGGFGGGSLSGGGGSRSISASSARFVSSGSGGGYGGGMRVCGFGGGAGSVFGGGFGGGVGGGFGGGFGGGDGGLLSGNEKITMQNLNDRLASYLDKVRALEEANADLEVKIHDWYQKQTPTSPECDYSQYFKTIEELRDKIMATTIDNSRVILEIDNARLAADDFRLKYENELALRQGVEADINGLRRVLDELTLARTDLEMQIEGLNEELAYLKKNHEEEMKEFSSQLAGQVNVEMDAAPGVDLTRVLAEMREQYEAMAEKNRRDVEAWFFSKTEELNKEVASNTEMIQTSKTEITDLRRTMQELEIELQSQLSMKAGLENSLAETECRYATQLQQIQGLIGGLEAQLSELRCEMEAQNQEYKMLLDIKTRLEQEIATYRSLLEGQDAKMAGIAIREASSGGGGSSSNFHINVEESVDGQVVSSHKREI

Legend:
[1] = tested on: HIV-1 LTR promoter transactivation by HIV-1 Tat; experiment: Transactivation assay, HIV-1 LTR luciferase reporter with HIV-1 Tat; assay type: cell-based; conditions: HEK293 cells co-transfected with pHIV1LTR-Luc, HIV-1 Tat and the human ORF; relative luciferase activity 24 h post-transfection; positive if >=2 or <=0.5 and p<0.05
Source text: The plasmids pHIV1LTR-Luc or pHTLV1LTR-Luc containing a luciferase reporter gene under the control of the HIV-1 or HTLV-1 LTR promoters and plasmids expressing either HIV-1 Tat or HTLV-1 Tax and each human ORF found to interact with viral proteins were transfected into 10^4 HEK293 cells using the calcium phosphate method. Twenty-four hours post-transfection, cells were washed three times with PBS, lysed and luciferase activities determined from two independent transfection experiments in triplicate. We computed a paired t-test to assess the difference of the means between samples with and without the human interactor. For a trial to be considered positive, the relative luciferase activities has to be >=2 or <=0.5, and the p-value of the t-test<0.05.
Many HIV/HTLV-human interactions in our data set (130/212) involved the retroviral transactivator proteins HTLV-1 Tax (57/212), HTLV-2 Tax2 (49/212), HIV-1 Tat (10/212) and HIV-2 Tat (14/212). Human proteins interacting with viral transactivators likely influence Tat or Tax transactivation. Expression vectors encoding human ORFs and HIV-1 Tat or HTLV-1 Tax proteins were tested in a transactivation reporter assay against reporter plasmids harboring HIV-1 or HTLV-1 viral promoter sequences cloned upstream of the luciferase reporter gene. In the controls Tat or Tax respectively activated HIV or HTLV LTR-directed gene expression. Co-transfection of interacting human ORFs identified 71 proteins (54% of the 131 human targets in our data set) that regulated HIV (26.7% of targets), HTLV (37.4% of targets) or both (9.9% of targets) LTR promoter activation by Tat or Tax (see Tables 7 and 8; Table 13 below containing quantitative data on the regulation of transactivation). Wherever not expressly specified, constructs used herein were generally made by sub-cloning entry clones from the ORFeome V3.1 into suitable destination vectors.

[2] = tested on: HTLV-1 LTR promoter transactivation by HTLV-1 Tax; experiment: Transactivation assay, HTLV-1 LTR luciferase reporter with HTLV-1 Tax; assay type: cell-based; conditions: HEK293 cells co-transfected with pHTLV1LTR-Luc, HTLV-1 Tax and the human ORF; relative luciferase activity 24 h post-transfection; positive if >=2 or <=0.5 and p<0.05
Source text: Twenty-four hours post-transfection, cells were washed three times with PBS, lysed and luciferase activities determined from two independent transfection experiments in triplicate. We computed a paired t-test to assess the difference of the means between samples with and without the human interactor. For a trial to be considered positive, the relative luciferase activities has to be >=2 or <=0.5, and the p-value of the t-test<0.05.
Expression vectors encoding human ORFs and HIV-1 Tat or HTLV-1 Tax proteins were tested in a transactivation reporter assay against reporter plasmids harboring HIV-1 or HTLV-1 viral promoter sequences cloned upstream of the luciferase reporter gene. […] Wherever not expressly specified, constructs used herein were generally made by sub-cloning entry clones from the ORFeome V3.1 into suitable destination vectors.

Molecule	HIV_LTR transactiv. [1] [fold change]	HTLV_LTR transactiv. [2] [fold change]
B1	0.40	
B2	2.38	
B3	6.90	
B4	7.30	
B5		0.21
B6	2.50	
B7	3.41	
B8	0.33	
